PMC10229567

Target: LOXL3 (UniProt P58215)
Experiment: Co-IP of LOXL3 with LOXL3
Details: reference: wild type; sites S704

Sequence of UniProt P58215 (P58215 whole entry S704A): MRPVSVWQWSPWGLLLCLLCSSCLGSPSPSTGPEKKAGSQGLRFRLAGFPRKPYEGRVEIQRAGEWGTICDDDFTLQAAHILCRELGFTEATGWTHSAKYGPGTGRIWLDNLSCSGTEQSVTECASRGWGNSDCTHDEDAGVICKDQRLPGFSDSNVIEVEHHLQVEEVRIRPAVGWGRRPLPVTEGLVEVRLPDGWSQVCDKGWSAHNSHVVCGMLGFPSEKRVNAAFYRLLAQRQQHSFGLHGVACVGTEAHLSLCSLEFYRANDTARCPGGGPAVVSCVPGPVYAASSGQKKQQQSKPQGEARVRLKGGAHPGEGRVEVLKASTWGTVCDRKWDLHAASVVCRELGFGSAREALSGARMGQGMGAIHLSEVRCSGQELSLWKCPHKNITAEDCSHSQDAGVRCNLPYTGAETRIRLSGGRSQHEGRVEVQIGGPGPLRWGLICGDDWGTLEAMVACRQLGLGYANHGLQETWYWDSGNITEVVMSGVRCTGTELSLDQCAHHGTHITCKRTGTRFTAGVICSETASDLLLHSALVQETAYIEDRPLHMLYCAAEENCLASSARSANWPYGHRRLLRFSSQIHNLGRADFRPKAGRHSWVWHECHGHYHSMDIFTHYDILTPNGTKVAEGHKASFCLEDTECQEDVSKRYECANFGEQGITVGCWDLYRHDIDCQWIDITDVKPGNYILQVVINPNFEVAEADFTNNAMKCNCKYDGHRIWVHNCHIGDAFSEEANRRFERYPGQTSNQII

LOXL3 (from UniProt P58215) S704A
binding against the reference: weaker
